Reference: article PMC11729874, “How J-chain ensures the assembly of immunoglobulin IgM pentamers” (The EMBO Journal, 2024)

Assays:
[1] = molecular target: murine Cμ4tp domain, recombinant (mouse); assay: SEC; analytical SE-HPLC, Superdex 200 Increase 10/300, PBS pH 7.4, 25 °C; 1 mg/mL Cµ4tp (DTT removed) and/or 0.5 mg/mL J chain (if not stated otherwise) incubated 24 h at room temperature
[2] = molecular target: the molecule itself; assay: cross-linking; disulfide mapping of recombinant JC by cross-linking MS: denatured, alkylated with iodoacetamide, trypsin and Asp-N, HPLC-MS/MS, Kojak with disulfide as crosslinker
[3] = molecular target: murine Cμ4tp domain, recombinant (mouse); assay: SEC; analytical SE-HPLC, Superdex 200 Increase 10/300, PBS pH 7.4, 25 °C; 1 mg/mL Cµ4tp (DTT removed) and/or 0.5 mg/mL J chain (if not stated otherwise) incubated 24 h at room temperature; remark: listed apart in the source
[4] = molecular target: the molecule itself; assay: nonreducing SDS-PAGE and western blot of covalent assemblies; HEK293/HEK293T co-transfected with H-Cµ234tp and JC variants, 48 h; RIPA lysates with 10 mM NEM and TCA-precipitated supernatants; Halo ligands, anti-JC, anti-µ

“murine Cμ4tp domain, recombinant (domain or fragment)” showed a stoichiometry N [1] of 2 chains and a stoichiometry N (Cµ4tp2 dimers) [1] of 6.

B1: murine Joining Chain wild type, recombinant (natural protein, mouse)
chain: MGDDEATILADNKCMCTRVTSRIIPSTEDPNEDIVERNIRIVVPLNNRENISDPTSPLRRNFVYHLSDVCKKCDPVEVELEDQVVTATQSNICNEDDGVPETCYMYDRNKCYTTMVPLRYHGETKMVQAALTPDSCYPD
notes: methionine added at position 1; murine joining chain (J chain), G22-D159 of the precursor; Heterogeneous native and non-native disulfides; largely unstructured by CD; also called JC; J chain
With B1 the binding result [2] was “binds” and the stoichiometry N (JC per (Cµ4tp2)5) [3] was 1.

B2: Halo-tagged truncated µs variant lacking the variable and first constant domains (H-Cµ234tp) (domain or fragment, UniProt P01872 106-454, looked up)
chain: VAEMNPNVNVFVPPRDGFSGPAPRKSKLICEATNFTPKPITVSWLKDGKLVESGFTTDPVTIENKGSTPQTYKVISTLTISEIDWLNLNVYTCRVDHRGLTFLKNVSSTCAASPSTDILTFTIPPSFADIFLSKSANLTCLVSNLATYETLNISWASQSGEPLETKIKIMESHPNGTFSAKGVASVCVEDWNNRKEFVCTVTHRDLPSPQKKFISKPNEVHKHPPAVYLLPPAREQLNLRESATVTCLVKGFSPADISVQWLQRGQLLPQEKYVTSAPMPEPGAPGFYFTHSILTVTEEEWNSGETYTCVVGHEALPHLVTERTVDKSTGKPTLYNVSLIMSDTGGTCY
notes: secretory Ig µ heavy chain without the variable and first constant domains: Cµ2, Cµ3, Cµ4 and the tailpiece; the gene carries a signal peptide; Detected with anti-mouse IgM (µ chain); also called Halo-Cµ234tp; H-Cµ234tp WT; source: HEK293/HEK293T or HeLa-ERp44KO, transfected, in lysate or supernatant
For B2, the “stoichiometry N” value [4] was 6 H-Cµ234tp2 subunits (dimers).
